Residue numbers refer to the chain shown, from its start. Values belong to the binder of their own block, whether it stands above or below them.
Tests used:
[1] = molecular target: T1, Lysozyme from chicken egg (Sigma, L3790) (chicken, UniProt P00698 19-147); assay: SPR, Biacore 8K, lysozyme immobilized on CM5 chip
T1 construct: Non-target molecule, amine-coupled to a CM5 chip
Procedure: (§1) The non-specific adsorption effect of antigen-binding proteins and non-target molecules were determined by using the SPR method.
(§2) The series sensor chip CM5 (GE, #BR-1005-30) was equilibrated at room temperature for 20-30 min and then loaded into the Biacore 8K (GE) instrument. Lysozyme solution (Sigma, #L3790) from egg and trypsin inhibitor type 1-S (Sigma, #T-2327) from Glycine max were immobilized onto the CM5 chip using an amino coupling kit (GE, #BR-1000-50). The injection buffer was HBS-EP (1×) (GE, #BR-1006-69) and four equilibration cycles were set up. The polyclonal rabbit anti-lysozyme (ABcam, Ab391), anti-trypsin inhibitor antibodies (LifeSpan Biosciences, #LS-C76609), chimeric antibodies and humanized antibodies were diluted with equilibration buffer to 1000 nM, and the flow rate was set at 5 μL/min and injection channels 1, 2 and 3, Flow Cell 1 and 2 were selected. The association time was 10 min and the dissociation time was 10 min.

[2] = molecular target: T2, Mouse CD73/NT5E protein (ACRO Biosystems, item No. CD3-M52H9) (mouse, UniProt Q61503 29-551); assay: SPR, Biacore T200, antibody captured on protein A chip, CD73 as analyte
T2 construct: Bought protein
T2 sequence (looked up): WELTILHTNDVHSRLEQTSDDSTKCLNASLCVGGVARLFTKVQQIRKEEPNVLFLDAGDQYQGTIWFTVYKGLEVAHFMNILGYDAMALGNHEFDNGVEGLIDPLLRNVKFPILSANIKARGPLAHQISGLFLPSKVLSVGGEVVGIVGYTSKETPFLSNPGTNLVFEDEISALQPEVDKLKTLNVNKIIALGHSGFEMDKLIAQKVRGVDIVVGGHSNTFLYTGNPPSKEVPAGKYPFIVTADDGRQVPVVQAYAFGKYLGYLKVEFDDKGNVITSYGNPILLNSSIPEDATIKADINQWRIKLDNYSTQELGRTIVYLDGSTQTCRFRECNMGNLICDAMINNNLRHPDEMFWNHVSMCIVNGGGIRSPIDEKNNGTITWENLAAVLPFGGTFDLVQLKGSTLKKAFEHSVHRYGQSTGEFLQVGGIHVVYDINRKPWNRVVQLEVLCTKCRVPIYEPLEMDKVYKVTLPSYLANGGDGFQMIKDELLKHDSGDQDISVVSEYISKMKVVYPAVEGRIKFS
Procedure: (§3) In the tests, the assay buffer HBS-EP+ (pH 7.4) and the protein A chip (manufacturer: GE, item No.: 29-1275-56) were used.
(§4) The temperatures of a sample chamber and a flow path were set at 25° C., and the protein A chip respectively captured antigen-binding proteins as ligands and immobilized at about 100 RU. […] After association for 120 s at a flow rate of 30 μL/min, dissociation was carried out for 600 s. Regeneration was then carried out for 60 s with 10 mM Glycine (pH 1.5) at a flow rate of 50 μL/min to implement multi-cycle kinetic detection. A 1:1 binding model was selected for fitting analysis in a Fit local mode to acquire the association rate constant (ka), dissociation rate constant (kd) and dissociation equilibrium rate constant (KD).

[3] = molecular target: T1, Lysozyme from chicken egg (Sigma, L3790); assay: SPR, Biacore 8K, lysozyme immobilized on CM5, antibody at 1000 nM; buffer alone 16.9 RU
Procedure: as §1, §2
The PI of carboxymethyl dextran was 3.5, the PI of the trypsin inhibitor was 4.5, and the PI of lysozyme was 11.3. In the HBS-EP buffer solution with a pH of 7.4, carboxymethyl dextran and the trypsin inhibitor had strong negative charges, and lysozyme had strong positive charges.

[4] = molecular target: T3, recombinant human CD73 protein (ACRO Biosystems, item No. CD3-H52H7) (human, UniProt P21589 27-547); assay: SPR, Biacore T200, antibody captured on protein A chip, human CD73 as analyte, 1:1 model
T3 construct: also called recombinant CD73 protein
T3 sequence (looked up): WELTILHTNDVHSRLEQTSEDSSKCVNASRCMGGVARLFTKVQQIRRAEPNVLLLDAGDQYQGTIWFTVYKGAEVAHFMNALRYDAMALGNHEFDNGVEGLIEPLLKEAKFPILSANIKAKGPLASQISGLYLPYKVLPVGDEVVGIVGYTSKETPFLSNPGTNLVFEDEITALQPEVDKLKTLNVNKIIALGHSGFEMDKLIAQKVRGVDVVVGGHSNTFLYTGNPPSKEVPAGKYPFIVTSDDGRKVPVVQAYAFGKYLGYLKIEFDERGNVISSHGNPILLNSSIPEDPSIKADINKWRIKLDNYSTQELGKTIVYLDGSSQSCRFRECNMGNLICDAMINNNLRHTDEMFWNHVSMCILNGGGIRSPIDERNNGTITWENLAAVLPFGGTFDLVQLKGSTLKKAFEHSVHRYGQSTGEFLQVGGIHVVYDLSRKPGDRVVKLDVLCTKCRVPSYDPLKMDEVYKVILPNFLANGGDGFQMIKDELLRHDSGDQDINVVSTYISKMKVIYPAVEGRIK
Procedure: as §3
as §4, with “chimeric antibodies or humanized antibodies” for “antigen-binding proteins”

T1 sequence (P00698 19-147 limits assumed): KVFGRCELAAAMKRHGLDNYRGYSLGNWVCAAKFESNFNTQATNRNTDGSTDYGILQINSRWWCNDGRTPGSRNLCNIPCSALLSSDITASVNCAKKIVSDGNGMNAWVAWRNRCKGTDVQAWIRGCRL

B1: 900567 (human-mouse chimeric anti-CD73 antigen-binding protein expressed from 124A9 variable regions) (antibody, V domains shown)
VH: QVQLQQPGAELVKPGASVKLSCKASGYTFTSYWIHWVKQRPGQGLDWIGMIHPNSGSTYYNEKFKSKATLTVDKSSSTAYMQLSSLTSEDSAVYYCARYYGSDYEWYFDVWGTGTTVTVSS
VL: DIVMTQSQKFMSTSVGDRVSITCKASQNVRTAVVWYQQNPGQSPKALIYLASNRHTGVPDRFTGSGSGTDFTLTISNVHSEDLADYFCLQHWNYPYTFGGGTKLEIK
- binding result [1]: no binding (tested: 1000 nM antibody; 20 RU)
- binding result [2]: no binding (tested: 50 nM (highest analyte concentration))
- non-specific binding amount (RU) [3]: 15.8 RU
- Kd [4]: 0.652 nM
- koff [4]: 0.00049 s⁻¹
- kon [4]: 752000 M⁻¹ s⁻¹

B2: 900725 (humanized anti-CD73 antigen-binding protein) (antibody, V domains shown)
VH: QVQLVQSGAEVKKPGASVKLSCKASGYTFTSYWIHWVRQAPGQGLEWIGMIHPNSGSTYYNEKFKGRATLTVDKSTSTAYMELSSLRSEDTAVYYCARYYGSDYEWYFDVWGQGTTVTVSS
VL: DIQMTQSPSSMSASVGDRVTITCKASQNVRTAVVWYQQKPGKAPKALIYLASNRHTGVPDRFSGSGSGTDFTLTISSLQPEDFATYFCLQHWNYPYTFGQGTKLEIK
- binding result [1]: no binding (tested: 1000 nM antibody; 20 RU)
- binding result [2]: no binding (tested: 50 nM (highest analyte concentration))
- non-specific binding amount (RU) [3]: 20.3 RU
- Kd [4]: 0.201 nM
- koff [4]: 0.000126 s⁻¹
- kon [4]: 626000 M⁻¹ s⁻¹

Continued, in another order:

- non-specific binding amount (RU) [3]: 17.7 RU
- Kd [4]: 2.49 nM
- koff [4]: 0.00124 s⁻¹
- kon [4]: 496000 M⁻¹ s⁻¹
B3: 900726 (humanized anti-CD73 antigen-binding protein) (antibody, V domains shown)
VH: B2 VH
VL: B2 VL with M11L, F87Y
- binding result [1]: no binding (tested: 1000 nM antibody; 20 RU)
- binding result [2]: no binding (tested: 50 nM (highest analyte concentration))

- non-specific binding amount (RU) [3]: 17.6 RU
- Kd [4]: 0.789 nM
- koff [4]: 0.000494 s⁻¹
- kon [4]: 626000 M⁻¹ s⁻¹
B4: 900727 (humanized anti-CD73 antigen-binding protein) (antibody, V domains shown)
VH: B2 VH with L20V, N61A, E62Q, K65Q, A68V, L70I
VL: B2 VL
- binding result [1]: no binding (tested: 1000 nM antibody; 20 RU)
- binding result [2]: no binding (tested: 50 nM (highest analyte concentration))

- non-specific binding amount (RU) [3]: 20.2 RU
- Kd [4]: 0.377 nM
- koff [4]: 0.000317 s⁻¹
- kon [4]: 841000 M⁻¹ s⁻¹
B5: 900728 (humanized anti-CD73 antigen-binding protein) (antibody, V domains shown)
VH: B2 VH with L20V, K65Q, A68V, L70M
VL: B2 VL with M11L, F87Y
- binding result [1]: no binding (tested: 1000 nM antibody; 20 RU)
- binding result [2]: no binding (tested: 50 nM (highest analyte concentration))

From patent US20240067747A1 (SHANGHAI HUAOTA BIOPHARMACEUTICAL, published 2024)
